Test results from patent US20250075190A1, “DE NOVO DESIGNED LUCIFERASE” (UNIVERSITY OF WASHINGTON, priority 2022, published 2025).

T1: native Renilla reniformis luciferase (RLuc) (Renilla reniformis, UniProt P27652)
T1 construct: host and tag of RLuc not clearly stated
T1 sequence (P27652 1-311): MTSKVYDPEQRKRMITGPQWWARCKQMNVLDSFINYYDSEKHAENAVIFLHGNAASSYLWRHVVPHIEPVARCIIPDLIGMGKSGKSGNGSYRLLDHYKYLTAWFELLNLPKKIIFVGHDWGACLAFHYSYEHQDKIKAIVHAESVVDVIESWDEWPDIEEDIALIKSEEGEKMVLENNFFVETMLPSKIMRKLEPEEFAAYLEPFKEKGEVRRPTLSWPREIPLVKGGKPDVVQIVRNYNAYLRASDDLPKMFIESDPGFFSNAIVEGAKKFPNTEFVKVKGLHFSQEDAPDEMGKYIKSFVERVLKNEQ

B1: LuxSit-i: LuxSit variant R60S/A96L/M110V, SEQ ID NO:2, named for high brightness (protein)
chain: MSEEQIRQFLRRFYEALDSGDADTAASLFHPGVTIHLWDGVTFTSREEFREWFERLFSTSKDAQREIKSLEVRGDTVEVHVQLHATHNGQKHTVDLTHHWHFRGNRVTEVRVHINPTG
modifications: VARIANT 1 optionally absent; VARIANT 118 optionally absent

What was measured:
[1] = biological target: T1, native Renilla reniformis luciferase (RLuc); test: Michaelis-Menten kinetics of native Renilla luciferase (RLuc) with CTZ; assay type: biochemical; settings: substrate CTZ; Table 3
Excerpt: Synthetic genes and oligonucleotides were purchased from Integrated DNA Technologies or GenScript. The synthetic gene was inserted between NdeI and XhoI sites of a pET29b+ vector, containing an N-terminal hexahistidine tag followed by a TEV protease cleavage site and a C-terminal stop codon. Restriction endonucleases, Q5 PCR polymerase, and T4 ligase were purchased from NEB. Plasmid DNA, PCR products, or digested fragments were purified by Qiagen DNA purification kits. DNA sequences were analyzed by Genewiz. Coelenterazine (CTZ) was purchased from Gold Biotechnology. Diphenylterazine (DTZ), pyridyl diphenylterazine (8pyDTZ), and Furimazine (FRZ) were purchased from MedChemExpress. […] DNA and protein concentrations were determined by a NanoDrop™ small-volume 8 channel UV/vis spectrometer. […] All luminescence measurements were acquired by a Biotek Synergy Neo2T™ Multi-Mode Plate Reader. To convert relative arbitrary unit (RLU) to the number of photons, Neo2 plate reader was calibrated by determining the chemiluminescence of luminol with known quantum yield in the presence of horseradish peroxidase and hydrogen peroxide in K2CO3 aqueous solution as previously described^45. SDS PAGE and luminescence images were captured by a Bio-Rad ChemiDocT™ XRS+. Images were analyzed using the Fiji image analysis software. […]

[2] = Michaelis-Menten kinetics measurements of purified luciferases; assay type: biochemical
Experimental: For Michaelis-Menten kinetics measurements, 25 μL of serial diluted DTZ substrate in Tris pH 8.0 buffer was added into the wells of a white 96-well half-area microplate containing 25 μL of purified luciferases (final enzyme concentration: 100 nM; substrate concentration: 0.78 to 50 μM). Measurements were taken every 1 min (0.1 s integration and 10 s shaking between each interval) for a total of 20 min. Initial velocities were estimated as the average of the light intensities from the first three data points to fit the Michaelis-Menten equation. All relative arbitrary unit (RLU) per second values were converted to photon/s by the luminol-H2O2—HRP calibration method^45. Following the equation: Imax=LQY×kcat×[E], Imax is the maximal photon flux (photon s^−1), [E] is the total enzyme concentration, and V ax is the maximum photon flux per molecule (photon s^−1 molecule^−1) from the fitting of the Michaelis-Menten equation. To determine the luminescent quantum yields, 25 μL of 5 μM individual substrate in PBS was injected into 25 μL PBS containing 100 nM corresponding luciferase. DTZ was used for all LuxSit variants while CTZ was used as the substrate of native RLuc. The luminescence signals were monitored until the reactions were completed (0.1 s integration and measurements were taken every 5 s for a total of 40 min). […] To record emission spectra, 25 μL of 50 μM DTZ in PBS were injected into 25 μL of 200 nM pure luciferases and the emission spectra were collected with 0.1 s integration and 2 nm increments from 300 to 700 num. In vitro luminescence activity measurements of LuxSit-i expressing HEK293T or HeLa cells were done similarly as 15,000 intact cells or lysates were used in the assay instead of purified luciferases. To evaluate the substrate specificity, 25 μL of 50 μM substrate analogs in PBS were added to 25 μL of 200 nM indicated luciferases, and the signals were recorded over 20 min. Data were shown as the total luminescence signal over the first 10 min. We normalized the data by setting the highest emission substrate at 100%.

[3] = Luminescent quantum yield of LuxSit variants; assay type: biochemical; settings: consuming 125 pmol of DTZ in PBS with 50 nM recombinant luciferase; estimated relative to reported quantum yield of RLuc; mean ± s.d., n = 3
Experimental: (§1) FIG. 10. Additional characterization of LuxSit variants. (a) Normalized emission kinetics of 15,000 intact HeLa cells expressing LuxSit-i, 100 nM purified LuxSit-i, or 100 nM purified LuxSit-f in the presence of 50 μM DTZ. The more extended emission kinetics in HeLa cells is likely due to the diffusion rate of DTZ across cell membranes. […] (c) Luminescent quantum yield was estimated from the integrated luminescence signal until completely converting 125 pmol substrates to photons in the presence of 50 nM corresponding luciferase (see Methods). All data points were plotted as the average of triplicate measurements.
For Michaelis-Menten kinetics measurements, 25 μL of serial diluted DTZ substrate in Tris pH 8.0 buffer was added into the wells of a white 96-well half-area microplate containing 25 μL of purified luciferases (final enzyme concentration: 100 nM; substrate concentration: 0.78 to 50 μM). […] The luminescence signals were monitored until the reactions were completed (0.1 s integration and measurements were taken every 5 s for a total of 40 min). […] In vitro luminescence activity measurements of LuxSit-i expressing HEK293T or HeLa cells were done similarly as 15,000 intact cells or lysates were used in the assay instead of purified luciferases. […] Data were shown as the total luminescence signal over the first 10 min. […]

[4] = Substrate specificity on coelenterazine substrate analogs; assay type: biochemical
Experimental: FIG. 4. High substrate specificity of designed luciferases allows multiplexed bioassay. (a) Chemical structures of Coelenterazine substrate analogs. (b) Activity of LuxSit-i on selected luciferin substrates. Luminescence image (top) and signal quantification (bottom) of the indicated substrate in the presence of 100 nM LuxSit-i. LuxSit-i has high specificity for the design target substrate, DTZ. (c) Heatmap visualization of the substrate specificity of LuxSit-i. Renilla luciferase (RLuc), Gaussia luciferase (GLuc), engineered NLuc from Oplophorus luciferase. […] (d) Luminescence emission spectrum of LuxSit-i/DTZ and RLuc/PP-CTZ can be spectrally resolved by 528/20 and 390/35 filters (shown in dashed bars) and only recognize the cognate substrate. (e) Schematic of the multiplex luciferase assay. […] (f-g) Luminescence signals from cells can be measured under either substrate-resolved or spectrally resolved methods by a plate reader. (f) For the substrate-resolved method, luminescence intensity was recorded without a filter after adding either PP-CTZ or DTZ. […] Luminescence signals were acquired from the lysate of 15,000 cells in CelLytic™ M reagent while CyOFP fluorescence signal was used to normalize cell numbers and transfection efficiencies. […]

[5] = Circular dichroism spectra and thermal denaturation; assay type: physicochemical; settings: 220 nm, 25° C. to 95° C.
Excerpt: Synthetic genes and oligonucleotides were purchased from Integrated DNA Technologies or GenScript. The synthetic gene was inserted between NdeI and XhoI sites of a pET29b+ vector, containing an N-terminal hexahistidine tag followed by a TEV protease cleavage site and a C-terminal stop codon. Restriction endonucleases, Q5 PCR polymerase, and T4 ligase were purchased from NEB. Plasmid DNA, PCR products, or digested fragments were purified by Qiagen DNA purification kits. DNA sequences were analyzed by Genewiz. Coelenterazine (CTZ) was purchased from Gold Biotechnology. Diphenylterazine (DTZ), pyridyl diphenylterazine (8pyDTZ), and Furimazine (FRZ) were purchased from MedChemExpress. […] DNA and protein concentrations were determined by a NanoDrop™ small-volume 8 channel UV/vis spectrometer. […] All luminescence measurements were acquired by a Biotek Synergy Neo2T™ Multi-Mode Plate Reader. To convert relative arbitrary unit (RLU) to the number of photons, Neo2 plate reader was calibrated by determining the chemiluminescence of luminol with known quantum yield in the presence of horseradish peroxidase and hydrogen peroxide in K2CO3 aqueous solution as previously described^45. SDS PAGE and luminescence images were captured by a Bio-Rad ChemiDocT™ XRS+. Images were analyzed using the Fiji image analysis software.
Purified protein samples were prepared at 15 μM in pH 7.4 10 mM phosphate buffer. Spectra from 190 nm to 260 nm were recorded at 25° C., 50° C., 75° C., 95° C., and after cooling back to 25° C. Thermal denaturation was monitored at 220 nm from 25° C. to 95° C. […]

[6] = Luciferase activities of re-designed sequences based on LuxSit-i (Table 1); assay type: biochemical; settings: LuxSit-f and re-designed sequences based on LuxSit-i (Table 1)
Excerpt: In another embodiment, the proteins comprise an amino acid sequence at least 30%, 35%, 40%, 45%, 50%, 55%, 60%, 65%, 70%, 75%, 80%, 85%, 90%, 91%, 92%, 93%, 94%, 95%, 96%, 97%, 98%, 99%, or 100% identical to the amino acid selected from the group consisting of SEQ ID NO:1-181, as shown in Table 1. SEQ ID NO:5-181 in Table 1 are re-designed amino acid sequences based on LuxSit-i (SEQ ID NO:2), with their luciferase activities shown.

[7] = Luminescence decay curves of LuxSit-i in various pH buffers; assay type: biochemical
Experimental: as §1

Row | Molecule | Vmax [1] [photon s^−1 molecule^−1] | photon flux (photon s^−1) greater than native Renilla reniformis luciferase (RLuc) [2] [%] | LQY (luminescent quantum yield) [3] [%] | selectivity for DTZ over bis-CTZ [4] [fold] | thermal stability (CD melting) [5] | Activity [6] | pH dependence of DTZ luminescent reaction [7] | higher photon flux over LuxSit (25 μM DTZ) | Relative emission intensity (integrated luminescence intensity over the first 20 min, normalized to LuxSit, 25 μM DTZ in Tris pH 8.0 buffer)
1 | Oc1ccc(Cc2nc3c(Cc4ccccc4)nc(-c4ccc(O)cc4)cn3c2O)cc1 [CTZ, Coelenterazine] | 0.26 |  |  |  |  |  |  |  | 
2 | B1 |  | 38 | 14.5 ± 1.8 | 50 | thermostable | 763.6 | pH-dependent | more than 100 fold | 153
